Here are results for one protein from US7704695B2, “Screening of compounds for BGT1 transporter activity” (XenoPort, Inc., priority 2005, dated 2010).

Substrate in this data set: NCCCC(=O)O
Kind of data set: hBGT1 direct uptake assay (LC-MS-MS). It counts as cell-based, human. Conditions: other: HEK-TREx-hBGT1 cells induced to express hBGT1.

Experimental: A modified direct uptake assay was developed to determine the ability of test compounds to be transported into HEK-TREx cells induced to over-express hBGT1. Four concentrations (bracketing the affinity as measured by competition assays) per compound were routinely tested. Non-specific uptake was determined by measuring the uptake into cells not induced to express the transporter (“no tet”).
Typically, four concentrations bracketing the IC50 were tested. The highest test concentration for each compound was made in an Eppendorf tube and diluted into HBSS. The samples were robustly vortexed and centrifuged for 10 minutes at 13,200 rpm to spin down any precipitate. […] Three additional 2-fold dilutions were made in the subsequent rows (B-D or F-G) in HBSS.
An internal standard of 50 μM propranolol in 50:50 ethanol:water was also prepared. To prepare standard curves, several concentrations of the test compounds were diluted into HEK cell extract (prepared from tet-treated, mock-incubated, and extracted cells as described below) with a final internal standard concentration of 5 μM. Standards of 10, 5, 1, 0.5, 0.1, 0.05, 0.01, and 0.005 μM were routinely run for each test compound. […]

B1: hBGT1 (Homo sapiens) (protein)
chain: MDGKVAVQECGPPAVSWVPEEGEKLDQEDEDQVKDRGQWTNKMEFVLSVAGEIIGLGNVWRFPYLCYKNGGGAFFIPYFIFFFVCGIPVFFLEVALGQYTSQGSVTAWRKICPLFQGIGLASVVIESYLNVYYIIILAWALFYLFSSFTSELPWTTCNNFWNTEHCTDFLNHSGAGTVTPFENFTSPVMEFWERRVLGITSGIHDLGSLRWELALCLLLAWVICYFCIWKGVKSTGKVVYFTATFPYLMLVILLIRGVTLPGAYQGIIYYLKPDLFRLKDPQVWMDAGTQIFFSFAICQGCLTALGSYNKYHNNCYKDCIALCFLNSATSFVAGFVVFSILGFMSQEQGVPISEVAESGPGLAFIAFPKAVTMMPLSQLWSCLFFIMLIFLGLDSQFVCVECLVTASIDMFPRQLRKSGRRELLILTIAVMCYLIGLFLVTEGGMYIFQLFDYYASSGICLLFLSLFEVVCISWVYGADRFYDNIEDMIGYRPWPLVKISWLFLTPGLCLATFLFSLSKYTPLKYNNVYVYPPWGYSIGWFLALSSMVCVPLFVVITLLKTRGPFRKRLRQLITPDSSLPQPKQHPCLDGSAGRNFGPSPTREGLIAGEKETHL
notes: expressed in transfected cells; host or cells: HEK-TREx cells (HEK-TREx-BGT1 inducible line), induced with tetracycline/doxycycline and butyrate
For orientation: Km means the concentration of substrate that gives half-maximal velocity. For B1, the Km amounted to 27 µM.
